These results are taken from paper PMC3089636.

In the series the target is T1, Fur (ferric uptake regulator) (Salmonella enterica (strain for cloning not stated; SL1344/SV5015 used in the paper)) (UniProt A0A0H3NJ13).
T1 sequence: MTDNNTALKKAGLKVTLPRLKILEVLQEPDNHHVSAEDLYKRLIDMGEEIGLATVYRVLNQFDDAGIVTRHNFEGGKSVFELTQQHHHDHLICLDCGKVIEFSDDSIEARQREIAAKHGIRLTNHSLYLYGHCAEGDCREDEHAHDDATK
Kind of series: EMSA. The note with it: EMSA: 10 mM Bis-Tris/borate pH 7.5, 5% glycerol, 1 mM MgCl2, 40 mM KCl, 100 ug/ml BSA, 0.2 mg/ml salmon sperm DNA, 100 uM MnCl2, 20 nM probe, 10 min 37 C …. Background: Mobility shift assays separate free from complexed probe on a gel.

For the substance “AGTTATCTGCGGCAGGACGCTGATGACTATTACTTACAAAGGTTACATTTTCCATATTATCCCTTTGTTGATGTTATTTTAATGTTCCTTACTGGTATCCTACTGAAAAAATCTGAGTTGTAAATGCTCTTTATTAGCGTGTGTTGGCAATGGTCTGATTGTTACACCAAAAGAACCCAAATTTGGGTAATTTATCTACAGTAGTTTAAGCCCCAATGGGGATGATGGTTCTTTTAATATGTGTTGAGACGCATTATACA (double strand) [FrgB]”, the binding result is reported as “no binding”.
Same read-out and setting: the result for “AGTTATCTGCGGCAGGACGCTGATGACTATTACTTACAAAGGTTACATTTTCCATATTATCCCTTTGTTGATGTTATTTTAATGTTCCTTACTGGTATCCTACTGA (double strand) [FrgC]” reads “no binding”.
By Kd is commonly meant the equilibrium constant for the complex coming apart. Read a high Kd as lower affinity. FrgA (PhilD) registered a Kd of 4.5 nM.
